This note sets out measurements from patent US20220259306A1 (SHANGHAI HYAMAB BIOTECH, published 2022).

The target of experiment [1] is T1, monkey NKG2A/CD94 on the cell surface (CHOk1-cNKG2A/CD94 stable cell line) (macaque, UniProt Q9MZJ3 1-233; Q9MZK9 1-179).
T1 construct: also called macaque NKG2A; cyno NKG2A
In words: FACS on CHOK1-cNKG2A/CD94 cells.

In experiment [2] the target is T2, hFc-tagged NKG2A/CD94 protein (NKG2A/CD94-hFc), immunogen A (human, UniProt P26715 94-233; Q13241 32-179, biotin-labeled in the Octet assays (site not stated)).
T2 construct: Heterodimer of the extracellular domains of NKG2A and CD94, each with hFc; also called human-derived NKG2A/CD94-ECD-Fc; hNKG2A/CD94-ECD-Fc; not shown: human IgG Fc fragment (hFc) of the pCpC vector
T2 sequence (P26715 94-233 limits assumed, chain 1 of 2): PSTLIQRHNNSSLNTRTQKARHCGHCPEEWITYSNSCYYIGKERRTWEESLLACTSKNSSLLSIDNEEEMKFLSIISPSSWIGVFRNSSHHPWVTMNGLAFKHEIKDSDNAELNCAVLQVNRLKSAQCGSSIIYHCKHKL
T2 sequence (Q13241 32-179 limits assumed, chain 2 of 2): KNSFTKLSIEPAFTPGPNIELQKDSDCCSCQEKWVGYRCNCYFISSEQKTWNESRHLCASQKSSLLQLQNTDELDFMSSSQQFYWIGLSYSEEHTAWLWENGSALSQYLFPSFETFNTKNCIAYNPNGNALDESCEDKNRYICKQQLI
In words: BLI (Octet), biotinylated HNKG2A/CD94-ECD-Fc on streptavidin sensor, method of Example 5B. The source says: (§1) An Octet red96 instrument (purchased from Fortiebio) was used to determine the affinity constant. The specific operations and methods are based on the instrument manual and the detailed methods provided by the manufacturer. Specifically: using a streptavidin sensor (SA sensor, purchased from Fortiebio) for affinity determination.
(Biolayer interferometry detects binding as a change in optical thickness at a sensor tip.)

For experiment [3], the target named is T3, NKG2E protein (human, UniProt Q07444 94-240, limits assumed).
T3 construct: construct and source not described
T3 sequence (Q07444 94-240 limits assumed): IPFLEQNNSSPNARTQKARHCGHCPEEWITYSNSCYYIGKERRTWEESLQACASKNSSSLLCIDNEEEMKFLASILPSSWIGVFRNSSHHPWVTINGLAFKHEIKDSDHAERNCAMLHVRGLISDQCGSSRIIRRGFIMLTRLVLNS
In words: ELISA on NKG2E protein.

Experiment [4] has as its target T1, monkey NKG2A/CD94 on the cell surface …. In words: FACS on CHOK1-cNKG2A/CD94 cells, Alexa 488 secondary antibody. The text has this: The pCHO1.0 plasmid containing the nucleotide sequence encoding the full-length amino acid sequence of human-derived NKG2A/CD94 as described in step (2) of Example 1 was transfected into the CHOK1 cell line to obtain a CHOK1 stable cell line containing human NKG2A and CD94 (here referred to as CHOk1-hNKG2A/CD94 stable cell line), the pCHO1.0 plasmid carrying the monkey-derived NKG2A and CD94 full-length genes (the preparation method is the same as the preparation method of pCpC vector with human IgG Fc fragment (hFc) in step (1) “Preparation of immunogen A” in Example 1. The CHOK1 cell line was transfected to obtain the CHOK1 stable cell line containing monkey NKG2A/CD94 (here referred to as the CHOk1-cNKG2A/CD94 stable cell line), the CHOK1-hNKG2C/CD94 stable cell line was prepared with the same method. CHOk1-hNKG2A/CD94 stable cell line, CHOk1-cNKG2A/CD94 stable cell line and CHOK1-hNKG2C/CD94 stable cell line were expanded to 90% confluence in T-75 cell culture flasks, aspirating the medium, washed twice with PBS buffer (purchased from Invitrogen), then treating and collecting the cells with an enzyme-free cell dissociation solution (Versene solution, purchased from Life technology). Washing the cells twice with PBS buffer, after counting the cells, diluting the cells with PBS buffer to 2×10⁶ cells per milliliter, adding 1% goat serum blocking solution, the percentage was the mass percentage, incubated on ice for 30 minutes, and then washed twice with PBS buffer by centrifugation. Suspending the collected cells with FACS buffer (PBS+1%BSA, the percentage was the mass percentage) to 2×10⁶ cells/mL, adding it to 96-wells FACS reaction plate at 100 microliters per well, and adding 100 microliters per well of the purified NKG2A antibody test sample obtained in Example 2, incubated on ice for 2 hours. Washed twice with FACS buffer by centrifugation, and adding 100 microliters of fluorescent (Alexa 488) labeled secondary antibody (purchased from Invitrogen) per well, incubated on ice for 1 hour. Washed 3 times by centrifugation with FACS buffer, then suspending the cells with 100 μl FACS buffer, and using FACS (FACS Calibur, purchased from BD) to detect and analyze the results.

For experiment [5], the target named is T2, hFc-tagged NKG2A/CD94 protein …. In words: BLI (Octet red96), biotinylated immunogen A on streptavidin sensor, antibody in solution.
From the text: as §1

For experiment [6], the target named is T1, monkey NKG2A/CD94 on the cell surface …. Kind of experiment: FACS on CHOK1-cNKG2A/CD94 cells. The source holds these as a separate data set.
The target in experiment [7] is T2, hFc-tagged NKG2A/CD94 protein …. Kind of experiment: ELISA of scFv supernatant, selection threshold. A general note: In an ELISA, binding on a coated surface is turned into a signal by an enzyme label.
Experiment [8] deals with T1, monkey NKG2A/CD94 on the cell surface …. In words: FACS of scFv on cells with macaque NKG2A (cell line not given).
Experiment [9] has as its target T4, human NKG2A/CD94 on the cell surface (CHOk1-hNKG2A/CD94 stable cell line) (human, UniProt P26715 1-233; Q13241 1-179).
T4 construct: whole, on cells; 93 and 94 are nucleic acids; also called human NKG2A on the cell surface; NKG2A/CD94 cells
Kind of experiment: FACS on CHOK1-hNKG2A/CD94 cells, Alexa 488 secondary antibody.

The target in experiment [10] is T4, human NKG2A/CD94 on the cell surface …. Kind of experiment: FACS blocking assay: HLA-E binding to NKG2A/CD94 cells in the presence of the antibody.
Experiment [11] has the same target. In words: FACS blocking assay: HLA-E-PE binding to CHOk1-hNKG2A/CD94 cells in the presence of the antibody.

What is called EC50 (read off the curve) is the concentration giving half of the maximal effect. Usually Kd stands for a measure of binding affinity in units of concentration. The koff is a measure of how fast the partners let go of each other. A word on the kon: it is the second-order rate constant of association.

Positions count from the first letter of the chain named.

T1 sequence (Q9MZJ3 other isoform, or with tags, fused parts or gaps, chain 1 of 2): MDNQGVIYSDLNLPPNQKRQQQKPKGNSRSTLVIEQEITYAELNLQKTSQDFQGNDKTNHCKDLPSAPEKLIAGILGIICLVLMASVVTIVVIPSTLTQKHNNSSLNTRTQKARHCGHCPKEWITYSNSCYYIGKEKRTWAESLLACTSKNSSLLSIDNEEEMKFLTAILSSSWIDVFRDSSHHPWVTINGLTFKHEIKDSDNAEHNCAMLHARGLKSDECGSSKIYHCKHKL
T1 sequence (Q9MZK9 whole entry, chain 2 of 2): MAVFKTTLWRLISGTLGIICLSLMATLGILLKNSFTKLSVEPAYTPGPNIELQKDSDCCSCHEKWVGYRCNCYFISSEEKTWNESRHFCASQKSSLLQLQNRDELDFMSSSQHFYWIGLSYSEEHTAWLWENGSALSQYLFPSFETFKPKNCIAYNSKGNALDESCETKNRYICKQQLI

B1: M15-5 (antibody, V domains shown)
VH: QVQLVQSGAEVKKPGASVKVSCKASGFNIQNTYIHWVKQAPGQGLEWIGKIDPANADTKYAPTFQGRATITADTSTNTAYLELSSLRSEDTAVYYCARYRDYLFYYALGYWGQGTTVTVSS
VL: DIVMTQSPLSLPVTPGEPASISCRSSKSLLHSNANTYLYWYLQKPGQSPQLLIYRMSNLASGVPDRFSGSGSGTDFTLKISRVEAEDVGVYYCMQHLEYPYTFGQGTKLEIK
notes: Humanized; also called humanized NKG2A antibody
Turning to B1, the “EC50 (read off the curve)” value in experiment [1] is roughly 1 nM. In [2], this molecule gave a Kd of less than 0.0104 nM, a koff of less than 1e-05 s⁻¹ and a kon of 958000 M⁻¹ s⁻¹.

B2: Mab031 (antibody, V domains shown)
VH: EVQLQQSVAELVRPGASVRLSCTGSGFNIQNTYIHWVKQRPEQGLEWIGRIDPANGDTKYAPKFQGKATITADTSSNTAYLQLSSLTSEDTAIYYCTRYGNYLYYYSLDYWGQGTSVTVSS
VL: DIVMTQAAPSVPVTPGESVSISCRSSKSLLHSNGNTYLYWFLQRPGQSPQLLIYRMSNLASGVPDRFSGSGSGTAFTLRISRVEAEDMGVYYCMQHLEYPYTFGGGTKLEIK
As to B2, the binding result in experiment [3] is on record as “no binding (tested: 66.67 nM)”. Further, the “EC50 (read off the curve)” value in experiment [4] is roughly 1 nM. In experiment [5], this molecule came in with a Kd of 0.0181 nM, a koff of 1.84e-05 s⁻¹ and a kon of 1.02e+06 M⁻¹ s⁻¹.

B3: Mpb416 (antibody, V domains shown)
VH: QVQLQQSVAELVRPGASVKLSCTASGFNIQNTYIHWVKQRPEQGLEWIGKIDPANGDTKYAPTFQGKATITADTSSNTAYLQLSSLTPEDTAIYYCARYRDYLFYYALGYWGQGTSVTVSS
VL: B2 VL with A7S, M88V
notes: also called 12G8 (as full antibody)
For B3, the binding result in experiment [3] was “no binding (tested: 66.67 nM)”. Moreover, in experiment [4], the “EC50 (read off the curve)” value is roughly 0.7 nM. In [5], this molecule had a Kd of 0.0104 nM, a koff of 1.04e-05 s⁻¹ and a kon of 995000 M⁻¹ s⁻¹.

B4: Mab033 (antibody, V domains shown)
VH: EVQLQQSVAEFVRPGASVRLSCTASGFNIENTYIHWLKQRPEQGLEWIGRIDPANGDTQYDPKFQGKATLTAATSSNTAYLQLSGLTSEDTAIYYCTRYGDYLFYYSLKYWGQGTSVTVSS
VL: B2 VL with P12S, M88V, Y99S
On to B4, for which the binding result in [3] is “no binding (tested: 66.67 nM)”. Besides, in experiment [4], the “EC50 (read off the curve)” value is roughly 1 nM. Besides, in [5], binding was put at a Kd of 0.0202 nM, the koff is 2.26e-05 s⁻¹ and the kon turned out to be 1.12e+06 M⁻¹ s⁻¹.

B5: Mab032 (antibody, V domains shown)
VH: B2 VH with Q30E, I34M, V37L, N55D, K59Q, A72T, T97A, Y104F, L108M
VL: B2 VL with G73A, M88V, V90I
As for B5, the binding result in experiment [3] was “no binding (tested: 66.67 nM)”. Moreover, in [4], the “EC50 (read off the curve)” value is roughly 1 nM. In experiment [5], the Kd came out at 0.0239 nM, the koff is 2.45e-05 s⁻¹ and the kon is 1.03e+06 M⁻¹ s⁻¹.

B6: M15 (antibody, V domains shown)
VH: B3 VH with G56A
VL: B2 VL with A7S, G34A, M88V
notes: parent of the humanized M15-1 to M15-15; also called M15 antibody; Mpb416-M15
B6: the concentration for a half-maximal effect (EC50 (read off the curve)) in experiment [1] and in experiment [6] was roughly 0.8 nM throughout.

B7: 2F10-2 (scFv clone) (scFv, V domains shown)
VH: QVQLQQSVAELVRPGASVKLSCTASGFNIKNAYVHWVKQRPEQGLEWIGQIDPANGNTKYAPKFQAKATITADTSSNTVYLQLSSLTSEDTAVYYCARSYLGGQYYFDYSGQGTTLTVSS
VL: DILMTQSPSSMYASLGERVTITCKASQDINSYLSWFQQKPGKSPKTLIYRANRLVDGVPSRFSGSGSGQDYSLTISSLEYEDMGIYYCLQYDEFPLTFGAGTKLEIK
notes: scFv
Turning to B7, the “OD450 nm reading ratio NKG2A/CD94-ECD-Fc / NKG2C/CD94-ECD-Fc” value in experiment [7] was 4. In experiment [8], the binding result is “binds”.

B8: Tab1 (Z270) (antibody, V domains shown)
VH: EVQLVESGGGLVKPGGSLRLSCAASGFTFSSHSMNWVRQAPGKGLEWVSAISSSSSYIYYADSVKGRFTISRDNAKNSLYLQMNSLRAEDTAVYYCAREEWGLPFDYWGQGTLVTVSS
VL: AIQLTQSPSSLSASVGDRVTITCRASQGISSALAWYQQKPGKAPKLLIYDASSLKSGVPSRFSGSGSGTDFTLTISSLQPEDFATYYCQQFNSYPLTFGQGTRLEIK
For B8, the “EC50 (read off the curve)” value in [9] was roughly 0.4 nM; in [4], roughly 2 nM. Besides, the figures for the Kd in [5] and in [2] were 0.142 nM and 0.182 nM, respectively. In addition, the koff in experiment [5] came out at 0.000189 s⁻¹; in experiment [2] it was 0.00162 s⁻¹. The kon worked out at 1.33e+06 M⁻¹ s⁻¹ in [5] and 8.87e+06 M⁻¹ s⁻¹ in [2]. For the same molecule, the “IC50 (read off the curve)” value in experiment [10] is roughly 1 nM; in experiment [11], roughly 0.7 nM.
